Data published in patent publication US20260069656A1, “Nutritive Polypeptides and Formulations Thereof, and Methods of Production and Use Thereof” (Axcella Health Inc., priority 2013, published 2026).

B1: R134M: single amino acid mutant of SEQID-00338 at substrate binding position 134 (protein, listed as Saccharomyces cerevisiae)
chain: MSSSESIRMVLIGPPGAGKGTQAPNLQERFHAAHLATGDMLRSQIAKGTQLGLEAKKIMDQGGLVSDDIMVNMIKDELTNNPACKNGFILDGFPRTIPQAEKLDQMLKEQGTPLEKAIELKVDDELLVARITGMLIHPASGRSYHKIFNPPKEDMKDDVTGEALVQRSDDNADALKKRLAAYHAQTEPIVDFYKKTGIWAGVDASQPPATVWADILNKLGKD
modifications: strain ATCC 204508 / S288c
B2: R42A: single amino acid mutant of SEQID-00338 at substrate binding position 42 (protein, listed as Saccharomyces cerevisiae)
chain: MSSSESIRMVLIGPPGAGKGTQAPNLQERFHAAHLATGDMLASQIAKGTQLGLEAKKIMDQGGLVSDDIMVNMIKDELTNNPACKNGFILDGFPRTIPQAEKLDQMLKEQGTPLEKAIELKVDDELLVARITGRLIHPASGRSYHKIFNPPKEDMKDDVTGEALVQRSDDNADALKKRLAAYHAQTEPIVDFYKKTGIWAGVDASQPPATVWADILNKLGKD
modifications: strain ATCC 204508 / S288c
B3: D91F: single amino acid mutant of SEQID-00338 at magnesium ion binding site position 91 (protein, listed as Saccharomyces cerevisiae)
chain: MSSSESIRMVLIGPPGAGKGTQAPNLQERFHAAHLATGDMLRSQIAKGTQLGLEAKKIMDQGGLVSDDIMVNMIKDELTNNPACKNGFILFGFPRTIPQAEKLDQMLKEQGTPLEKAIELKVDDELLVARITGRLIHPASGRSYHKIFNPPKEDMKDDVTGEALVQRSDDNADALKKRLAAYHAQTEPIVDFYKKTGIWAGVDASQPPATVWADILNKLGKD
modifications: strain ATCC 204508 / S288c
B4: D91I: single amino acid mutant of SEQID-00338 at magnesium ion binding site position 91 (protein, listed as Saccharomyces cerevisiae)
chain: MSSSESIRMVLIGPPGAGKGTQAPNLQERFHAAHLATGDMLRSQIAKGTQLGLEAKKIMDQGGLVSDDIMVNMIKDELTNNPACKNGFILIGFPRTIPQAEKLDQMLKEQGTPLEKAIELKVDDELLVARITGRLIHPASGRSYHKIFNPPKEDMKDDVTGEALVQRSDDNADALKKRLAAYHAQTEPIVDFYKKTGIWAGVDASQPPATVWADILNKLGKD
modifications: strain ATCC 204508 / S288c
B5: R42Q: single amino acid mutant of SEQID-00338 at substrate binding position 42 (protein, listed as Saccharomyces cerevisiae)
chain: MSSSESIRMVLIGPPGAGKGTQAPNLQERFHAAHLATGDMLQSQIAKGTQLGLEAKKIMDQGGLVSDDIMVNMIKDELTNNPACKNGFILDGFPRTIPQAEKLDQMLKEQGTPLEKAIELKVDDELLVARITGRLIHPASGRSYHKIFNPPKEDMKDDVTGEALVQRSDDNADALKKRLAAYHAQTEPIVDFYKKTGIWAGVDASQPPATVWADILNKLGKD
modifications: strain ATCC 204508 / S288c
B6: R134Y: single amino acid mutant of SEQID-00338 at substrate binding position 134 (protein, listed as Saccharomyces cerevisiae)
chain: MSSSESIRMVLIGPPGAGKGTQAPNLQERFHAAHLATGDMLRSQIAKGTQLGLEAKKIMDQGGLVSDDIMVNMIKDELTNNPACKNGFILDGFPRTIPQAEKLDQMLKEQGTPLEKAIELKVDDELLVARITGYLIHPASGRSYHKIFNPPKEDMKDDVTGEALVQRSDDNADALKKRLAAYHAQTEPIVDFYKKTGIWAGVDASQPPATVWADILNKLGKD
modifications: strain ATCC 204508 / S288c
B7: R42L: single amino acid mutant of SEQID-00338 at substrate binding position 42 (protein, listed as Saccharomyces cerevisiae)
chain: MSSSESIRMVLIGPPGAGKGTQAPNLQERFHAAHLATGDMLLSQIAKGTQLGLEAKKIMDQGGLVSDDIMVNMIKDELTNNPACKNGFILDGFPRTIPQAEKLDQMLKEQGTPLEKAIELKVDDELLVARITGRLIHPASGRSYHKIFNPPKEDMKDDVTGEALVQRSDDNADALKKRLAAYHAQTEPIVDFYKKTGIWAGVDASQPPATVWADILNKLGKD
modifications: strain ATCC 204508 / S288c
B8: R42K: single amino acid mutant of SEQID-00338 at substrate binding position 42 (protein, listed as Saccharomyces cerevisiae)
chain: MSSSESIRMVLIGPPGAGKGTQAPNLQERFHAAHLATGDMLKSQIAKGTQLGLEAKKIMDQGGLVSDDIMVNMIKDELTNNPACKNGFILDGFPRTIPQAEKLDQMLKEQGTPLEKAIELKVDDELLVARITGRLIHPASGRSYHKIFNPPKEDMKDDVTGEALVQRSDDNADALKKRLAAYHAQTEPIVDFYKKTGIWAGVDASQPPATVWADILNKLGKD
modifications: strain ATCC 204508 / S288c
B9: R42C: single amino acid mutant of SEQID-00338 at substrate binding position 42 (protein, listed as Saccharomyces cerevisiae)
chain: MSSSESIRMVLIGPPGAGKGTQAPNLQERFHAAHLATGDMLCSQIAKGTQLGLEAKKIMDQGGLVSDDIMVNMIKDELTNNPACKNGFILDGFPRTIPQAEKLDQMLKEQGTPLEKAIELKVDDELLVARITGRLIHPASGRSYHKIFNPPKEDMKDDVTGEALVQRSDDNADALKKRLAAYHAQTEPIVDFYKKTGIWAGVDASQPPATVWADILNKLGKD
modifications: strain ATCC 204508 / S288c
B10: R42T: single amino acid mutant of SEQID-00338 at substrate binding position 42 (protein, listed as Saccharomyces cerevisiae)
chain: MSSSESIRMVLIGPPGAGKGTQAPNLQERFHAAHLATGDMLTSQIAKGTQLGLEAKKIMDQGGLVSDDIMVNMIKDELTNNPACKNGFILDGFPRTIPQAEKLDQMLKEQGTPLEKAIELKVDDELLVARITGRLIHPASGRSYHKIFNPPKEDMKDDVTGEALVQRSDDNADALKKRLAAYHAQTEPIVDFYKKTGIWAGVDASQPPATVWADILNKLGKD
modifications: strain ATCC 204508 / S288c
B11: R42G: single amino acid mutant of SEQID-00338 at substrate binding position 42 (protein, listed as Saccharomyces cerevisiae)
chain: MSSSESIRMVLIGPPGAGKGTQAPNLQERFHAAHLATGDMLGSQIAKGTQLGLEAKKIMDQGGLVSDDIMVNMIKDELTNNPACKNGFILDGFPRTIPQAEKLDQMLKEQGTPLEKAIELKVDDELLVARITGRLIHPASGRSYHKIFNPPKEDMKDDVTGEALVQRSDDNADALKKRLAAYHAQTEPIVDFYKKTGIWAGVDASQPPATVWADILNKLGKD
modifications: strain ATCC 204508 / S288c
B12: R42I: single amino acid mutant of SEQID-00338 at substrate binding position 42 (protein, listed as Saccharomyces cerevisiae)
chain: MSSSESIRMVLIGPPGAGKGTQAPNLQERFHAAHLATGDMLISQIAKGTQLGLEAKKIMDQGGLVSDDIMVNMIKDELTNNPACKNGFILDGFPRTIPQAEKLDQMLKEQGTPLEKAIELKVDDELLVARITGRLIHPASGRSYHKIFNPPKEDMKDDVTGEALVQRSDDNADALKKRLAAYHAQTEPIVDFYKKTGIWAGVDASQPPATVWADILNKLGKD
modifications: strain ATCC 204508 / S288c

Test system: kinase activity of SEQID-00338 (AMP + ATP→2ADP)
Assay: Kinase activity of SEQID-00338 and mutants, ADP-Glo Max Assay
Assay type: biochemical
Conditions: 7 μg/mL, 30 minute reaction at 30° C.; N=2
Experimental: Determination of the kinase activity of SEQID-00338. The ADP-Glo™ Max Assay was obtained from Promega (Catalog number V7001, Madison, WI). Adenosine Monophosphate was obtained from Sigma-Aldrich (Catalog number A1752, St. Louis, MO). 5× Kinase Buffer was prepared w/1.211 g Tris Base (Catalog number BP152-2, Fisher Bioreagents, Pittsburgh, PA), 692 μL 12% hydrochloric acid solution (Catalog number BDH3026-500MLP, VWR, Radnor, PA), 10.0 mL 500 mM magnesium chloride (Catalog number BP214-500, Fisher Bioreagents, Pittsburgh, PA) and the volume brought to 50 mL with MilliQ water and filtered through 0.22 μm PES filter (Catalog number SCGP00525, Millipore, Billerica, MA) into a sterile 50 mL tube.
Twelve his-tag purified mutant proteins and the wild-type protein at 35 μg/mL in Tris buffer were serially diluted to 7.0 and 1.4 μg/mL. Prepared kinase reaction mix at 0.5 mM AMP/0.5 mM ATP to test for activity and at 0 mM AMP/0 mM ATP to assay background activity by diluting 5× Kinase Buffer with appropriate volumes of 10 mM AMP and 10 mM ATP in MilliQ water. Duplicate reactions were prepared by mixing 9 μL of the reaction mixture with 6 μL of diluted SEQID-00338, mixing by pipetting up and down and dispensing 5 μL into a 384-well white OptiPlate (PerkinElmer, Waltham, MA). An ADP standard curve was prepared by serially diluting 4 mM ADP in MilliQ water and adding kinase buffer to 1× for a standard at 0.0005, 0.001, 0.005, 0.01, 0.05, 0.1, 1.5, 1, 2, 3, and 4 mM ADP. The plate was covered with a foil plate seal and incubated at 30° C. for 30 min. Following the kinase reaction, 5 μL of ADP-Glo™ Reagent was added to each well. The plate was sealed with a foil plate seal and placed on a horizontal plate shaker at 450 rpm for 2 minutes at room temperature. The plate was removed from the plate shaker and incubated at room temperature for 40 minutes. The plate was then centrifuged for 15 seconds at 1109× rcf and 10 μL of ADP-Glo™ Max Detection Reagent was added. The plate was sealed with a foil plate seal and shaken on a horizontal plate shaker at 450 rpm at room temperature for 2 minutes. The plate was then removed from the plate shaker and incubated at room temperature for 60 minutes. The plate was centrifuged for 15 seconds at 1109× rcf and the luminescence read on an EnspireAlpha plate reader (PerkinElmer, Waltham, MA).
The ADP standard curve was used to determine the concentration of ADP in sample wells in the presence or absence of substrate. Concentrations were determined by performing a non-linear 4 parameter logistic on the X=log(X) transformed ADP standard luminescence values. […] Where the background concentration of ADP in the absence of substrate was calculable the average of those values were subtracted from the calculated ADP concentration in the substrate incubated wells. Activity knock out was calculated by percentage activity relative to purified wild-type protein at the same concentration.

Molecule | AVG proportion activity, percentage AMP + ATP→2ADP converted relative to wild-type [%]
B1 | 0.3
B2 | 0.9
B3 | 0.9
B4 | 0.4
B5 | 1.2
B6 | 0.2
B7 | 1.7
B8 | 2.2
B9 | 1.8
B10 | 1.9
B11 | 1.2
B12 | 1.5
